Patent US20240409645A1 (DUALYX, published 2024)

Tests used:
human IL-2Rα [1] = target: T1, human IL-2Rα (human, UniProt P01589 22-240, limits assumed); assay: ELISA, P.E. on coated antigen
T1 construct: recombinant protein; also called hu IL-2R; human IL-2Ra
T1 sequence: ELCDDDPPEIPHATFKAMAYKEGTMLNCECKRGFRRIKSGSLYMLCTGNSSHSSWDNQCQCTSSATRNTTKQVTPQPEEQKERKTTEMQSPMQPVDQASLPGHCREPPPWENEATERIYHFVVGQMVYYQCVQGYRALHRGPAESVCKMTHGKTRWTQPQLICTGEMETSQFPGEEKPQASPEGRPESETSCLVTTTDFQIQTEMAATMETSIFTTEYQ
Description: In a binding ELISA, human or mouse IL-2Rα, IL-2Rβ and IL-2Rγ proteins were coated directly on maxisorp microtiter plates overnight at 4° C. Free binding sites were blocked using 4% Marvel in PBS for 1 hour. Next, 1:5 dilution of P.E. in 1% Marvel/PBS were added to wells and incubated for 1 hour. […] Binding specificity was determined based on O.D. at 450 nm values compared to negative controls.

human IL-2Rα [2] = target: T1, human IL-2Rα; assay: SPR, P.E. on immobilised antigen
Description: SPR was performed to determine dissociation rates using Biacore 3000 instrument (GE Healthcare). Briefly, human and mouse IL-2R proteins were immobilized on carboxylmethyl dextran sensor chip (CM5) at approximately 2500 RUs using amine coupling in acetate buffer (GE Healthcare). The VHH-containing P.E. were loaded with a flow rate of 30 uL/min and the off-rates were measured over a 120s period.

B1: FJ1427_P035MP01E10 (VHH)
VHH: QVQLVESGGGLVQAGDSLRLSCAASGRSFRNYILAWYRQAPGKEREFLAAISWLDGTLYADSVEDRFTISRDNPKNTVHLQMDSLKPEDTAVYYCAADRGPVRPVLAPDVDYWGQGTQVTVSS
notes: periplasmic extract; also called clone nr; 77
- OD (PE binding ELISA) (human IL-2Rα [1]): 2.78 OD450 nm
- koff (human IL-2Rα [2]): 0.00119 s⁻¹

B2: FJ1427_P035MP01G07 (VHH)
VHH: QVQLVESGGGLVQTGDSLRLSCAASGRSFRNYILAWYRQAPGKEREFLAAISWLDGTLYADSVEGRFTISRDNPKNTVHLQMDSLKPEDTAVYYCAADRGPVRPVLAPDVDYWGQGTQVTVSS
notes: periplasmic extract; also called clone nr; 55
- OD (PE binding ELISA) (human IL-2Rα [1]): 2.75 OD450 nm
- koff (human IL-2Rα [2]): 0.0015 s⁻¹

B3: FJ1427_P035MP01E02 (VHH)
VHH: QVQLVESGGGLVQAGDSLRLSCAASGRSFRNYILAWYRQAPGKEREFLAAISWLDGTLYADSVEDRFTISRDNPKNTVHLQMDNLKPEDTAVYYCAADRGPVRPVLAPDVDYWGQGTQVTVSS
notes: periplasmic extract; also called clone nr; 13
- OD (PE binding ELISA) (human IL-2Rα [1]): 2.86 OD450 nm
- koff (human IL-2Rα [2]): 0.00128 s⁻¹

B4: FJ1427_P035MP01E07 (VHH)
VHH: QVQLQESGGGLVQAGDSLRLSCAASGRSFRNYILAWYRQAPGKEREFLAAISWLEGTLYADSVEDRFTISRDNPKNTVHLQMDSLKPEDTAVYYCAADRGPVRPVLAPDVDYWGQGTQVTVSS
notes: periplasmic extract; also called clone nr; 53
- OD (PE binding ELISA) (human IL-2Rα [1]): 2.73 OD450 nm
- koff (human IL-2Rα [2]): 0.00159 s⁻¹

B5: FJ1427_P035MP01B12 (VHH)
VHH: QVQLQESGGGLVQAGDSLRLSCAASGRSFRNYILAWYRQAPGKEREFLAAISWLDGTFYANSVEGRFTISRDNPKNTVHLQMDGLKPEDTAVYYCAADRGPVRPVLAPDVDYWGQGTQVTVAS
notes: periplasmic extract; also called clone nr; 90
- OD (PE binding ELISA) (human IL-2Rα [1]): 3.05 OD450 nm
- koff (human IL-2Rα [2]): 0.00144 s⁻¹

B6: FJ1427_P035MP01E04 (VHH)
VHH: QVQLVESGGGLVQAGDSLRLSCAVSGRSFRNYILAWYRQAPGKEREFLAAISWLDGTFYANSVEGRFTISRDNPKNTVHLQMDGLKPEDTAVYYCAADRGPVRPVLAPDVDYWGQGTQVTVAS
notes: periplasmic extract; also called clone nr; 29
- OD (PE binding ELISA) (human IL-2Rα [1]): 2.61 OD450 nm
- koff (human IL-2Rα [2]): 0.00235 s⁻¹

B7: FJ1427_P035MP01A01 (VHH)
VHH: EVQLVESGGGLVQAGDSLRLSCAASGRSFRNYILAWYRQAPGKEREFLAAISWLDGTLYADSVEDRFTISRDNPKNTVHLQMDNLKPEDTAVYYCAADRGPVRPVLAPDVDYWGQGTQVSVSS
notes: periplasmic extract; also called clone nr
- OD (PE binding ELISA) (human IL-2Rα [1]): 2.85 OD450 nm
- koff (human IL-2Rα [2]): 0.00112 s⁻¹

B8: FJ1427_P035MP01F11 (VHH)
VHH: QVQLQESGGGLVQAGDSLRLSCAASGRSFRNYILAWYRQAPGKEREFLAAISWLDGTLYADSVEDRFTISRDNPKNTVHLQMDSLKPEDTAVYYCAADRGPVRPVLAPDVDYWGQGTQVTVSS
notes: periplasmic extract; also called clone nr; 86
- OD (PE binding ELISA) (human IL-2Rα [1]): 2.74 OD450 nm
- koff (human IL-2Rα [2]): 0.00118 s⁻¹

B9: FJ1427_P035MP01D11 (VHH)
VHH: QLQLVESGGGLVQAGDSLRLSCAASGRSFRNYIMAWYRQAPGKEREFLAAISWLDGTLYADSVEDRFTISRDNPKNTVHLQMDSLKPEDTAVYYCAADRGPVRPVLAPDVDYWGQGTQVTVSS
notes: periplasmic extract; also called clone nr; 84
- OD (PE binding ELISA) (human IL-2Rα [1]): 3.21 OD450 nm
- koff (human IL-2Rα [2]): 0.0027 s⁻¹

B10: FJ1427_P035MP01F08 (VHH)
VHH: EVQLVESGGGWVQPGDSLRLSCAASGRSFRNYVMGWFRQVPGKEREFLSVITSLGGTLDADSVADRFTISRDNSKNTVYLQMDSLKPEDTAVYYCAADRGPARYISASDVDYWGQGTQVTVSS
notes: periplasmic extract; also called clone nr; 62
- OD (PE binding ELISA) (human IL-2Rα [1]): 2.71 OD450 nm
- koff (human IL-2Rα [2]): 0.00162 s⁻¹

B11: FJ1427_P035MP01D04 (VHH)
VHH: QVQLVESGGGWVQPGDSLRLSCAASGRSFRNYVMGWFRQVPGKEREFLSVITWLGGTLDADSVADRFTISRDNSKNTVYLQMDSLKPEDTAVYYCAADRGPARYISASDVDYWGQGTQVTVSS
notes: periplasmic extract; also called clone nr; 28
- OD (PE binding ELISA) (human IL-2Rα [1]): 2.76 OD450 nm
- koff (human IL-2Rα [2]): 0.00295 s⁻¹

B12: FJ1427_P035MP01B01 (VHH)
VHH: EVQLVESGGGWVQAGDSLRLSCAASGRTFRNYVMGWFRQVPGKEREFLSVITSLGGTVYADSVANRFTISRDNPKDTVYLQMDSLKPEDTAVYYCAADRGPARYISASDVDYWGQGTQVTASS
notes: as for B7
- OD (PE binding ELISA) (human IL-2Rα [1]): 2.78 OD450 nm
- koff (human IL-2Rα [2]): 0.00178 s⁻¹

B13: FJ1427_P035MP05D06 (VHH)
VHH: QVQLVESGGGLVQAGDSLRLSCAASGFNFGWHAMGWFRQAPGKEREFVATITWTGRDTYYADSVRGRFTISKDNAKDTLFLQMNSLRPDDTGVYYCAKARERATWAYSEDDCDYWGQGTQVTVSS
notes: as for B7
- OD (PE binding ELISA) (human IL-2Rα [1]): 2.51 OD450 nm
- koff (human IL-2Rα [2]): 0.000677 s⁻¹

B14: FJ1427_P035MP05F06 (VHH)
VHH: EVQLVESGGGLVQAGDSLRLSCAASGFNFGWHAMGWFRQAPGKEREFVATITWTGRDTYYADSVRGRFTISKDNAKDTLFLQMNSLRPDDTGVYYCAKARERATWAYSEDDCDYWGQGTQVTVSS
notes: periplasmic extract; also called clone nr; 430
- OD (PE binding ELISA) (human IL-2Rα [1]): 2.51 OD450 nm
- koff (human IL-2Rα [2]): 0.00067 s⁻¹

B15: 13-MP05E12 (VHH)
VHH: QVQLQESGGGLVQAGDSLRLSCAASGFNFGWHAMGWFRQAPGKEREFVATITWTGRDTYYADSVRGRFTISKDNAKDTLFLQMNSLRPDDTGVYYCAKARERATWAYSEDDCDYWGQGTQVTVSS
notes: periplasmic extract; The row prints V ID 13-MP05E12 beside Clone ID ...MP05H07; clone nr; also called FJ1427_P035MP05H07
- OD (PE binding ELISA) (human IL-2Rα [1]): 2.34 OD450 nm
- koff (human IL-2Rα [2]): 0.000742 s⁻¹

B16: FJ1427_P035MP05H05 (VHH)
VHH: QVQLVESGGGLVQAGDSLRLSCAASGFNFGWHAMGWFRQAPGKEREFVATITWTGRDTYYADSVRGRFTISKDNAKNTLFLQMSSLRPDDTGVYYCAKARERATWAYSEDDCDYWGQGTQVTVSS
notes: as for B7
- OD (PE binding ELISA) (human IL-2Rα [1]): 2.51 OD450 nm
- koff (human IL-2Rα [2]): 0.000591 s⁻¹

B17: FJ1427_P035MP01F02 (VHH)
VHH: QVQLQESGGGLVQAGGSLRLSCAASGRTFRTHNMGWFRRAPGKEREFVAAISWNIDNKLYADSVKGRSTISRDNGGNMVFLQMNSLKPEDTAVYYCAADKIPLSSDVAATATEYDDWGQGTQVTVSS
notes: periplasmic extract; also called clone nr; 14
- OD (PE binding ELISA) (human IL-2Rα [1]): 2.5 OD450 nm
- koff (human IL-2Rα [2]): 0.00391 s⁻¹

B18: FJ1427_P035MP01F06 (VHH)
VHH: QLQLVESGGGLVQAGGSLRLSCAASGGAFSRYAVGWFRMAPGKGREFVSAIDLSGTNTHVLDSVKGRFTISRDNDKNTAYLQMDKLQPEDTAVYWCAATSSSYSDYEANYNIWGQGTQVTVSS
notes: periplasmic extract; also called clone nr; 46
- OD (PE binding ELISA) (human IL-2Rα [1]): 2.71 OD450 nm
- koff (human IL-2Rα [2]): 0.000526 s⁻¹

B19: FJ1427_P035MP01G10 (VHH)
VHH: EVQLVESGGGLVQAGGSLRLSCAASGGAFSRYAVGWFRMAPGKGREFVSAIDLSGTNTHVLDSVKGRFTISRDNDKNTAYLQMDKLQPEDTAVYWCAATSSSYSDYEANYNIWGQGTQVTVSS
notes: periplasmic extract; also called clone nr; 79
- OD (PE binding ELISA) (human IL-2Rα [1]): 2.75 OD450 nm
- koff (human IL-2Rα [2]): 0.000443 s⁻¹

B20: FJ1427_P035MP01H02 (VHH)
VHH: QLQLVESGGGLVQAGDSLRLSCAASGRAFSRYAVGWFRMAPGKGREFVSAINSSGANTYVLDSVKGRFTISRDNDKNTAYLQMDSLQPEDTAVYWCAATSSSYSTYEANYNVWGQGTQVTVSS
notes: periplasmic extract; also called clone nr; 16
- OD (PE binding ELISA) (human IL-2Rα [1]): 2.35 OD450 nm
- koff (human IL-2Rα [2]): 0.00115 s⁻¹

B21: FJ1427_P035MP01E12 (VHH)
VHH: QVQLVESGGGLVQAGGSLRLSCAASGITFNDHTMAWFRQAPGKEREFVAARDWSDIITRYASSVKGRFTISRDNAGNTGFLQMNSLRPEDTAVYYCAAREGGVVAGVRSGAPYDYWGQGTQVTVSS
notes: periplasmic extract; also called clone nr; 93
- OD (PE binding ELISA) (human IL-2Rα [1]): 2.69 OD450 nm
- koff (human IL-2Rα [2]): 0.000141 s⁻¹

B22: FJ1427_P035MP01F12 (VHH)
VHH: EVQLVESGGGLVQAGGSLGLSCAASGITFNDHTMAWFRQAPGKEREFVAARDWSDIITRYASSVKGRFTISRDNAGNTGFLQMNSLRPEDTAVYYCAAREGGVVAGVRSGAPYDYWGQGTQVTVSP
notes: periplasmic extract; also called clone nr; 94
- OD (PE binding ELISA) (human IL-2Rα [1]): 2.67 OD450 nm
- koff (human IL-2Rα [2]): 0.00011 s⁻¹

B23: FJ1427_P035MP01G11 (VHH)
VHH: QVQLVESGGGLVQAGGSLRLSCAASGITFNDHTMAWFRQAPGKEREFVAARDWSDIITRYASSVKGRFTISRDNAGNTGFLQMNSLRPEDTAVYYCAAREGGVVAGVRSGAPYDYWGRGTQVTVSS
notes: periplasmic extract; also called clone nr; 87
- OD (PE binding ELISA) (human IL-2Rα [1]): 2.73 OD450 nm
- koff (human IL-2Rα [2]): 0.000123 s⁻¹

B24: FJ1427_P035MP05B03 (VHH)
VHH: QVQLQESGGGLVQPGGSLRLSCAASGITFNDHTMAWFRQAPGKEREFVAARDWSDIITRYASSVKGRFTISRDNAGNTGFLQMNSLRPEDTAVYYCAAREGGVVAGVRSGAPYDYWGQGTQVTVSS
notes: as for B7
- OD (PE binding ELISA) (human IL-2Rα [1]): 2.42 OD450 nm
- koff (human IL-2Rα [2]): 0.000131 s⁻¹

B25: FJ1427_P035MP01F07 (VHH)
VHH: QVQLVESGGGLVQAGGSLRLSCAATGLTFRQHNMGWFRRAPGKEREFVAAISWNVGSTYFADSVKGRFTISRDNGKNMVYLQMNSLKPEDTAVYYCAADNIPLASDMRATATAYGYWGQGTQVTVSS
notes: periplasmic extract; also called clone nr; 54
- OD (PE binding ELISA) (human IL-2Rα [1]): 2.76 OD450 nm
- koff (human IL-2Rα [2]): 0.00067 s⁻¹
